Measurements: US20200140522A1 (US Dept. of Health and Human Services, published 2020)
Substitutions are numbered along the chain they refer to.

Tests used:
[1] = target: T1, bovine LPL (lipoprotein lipase) (bovine, UniProt P11151 29-478); assay: cell-based or functional assay
T1 sequence (looked up): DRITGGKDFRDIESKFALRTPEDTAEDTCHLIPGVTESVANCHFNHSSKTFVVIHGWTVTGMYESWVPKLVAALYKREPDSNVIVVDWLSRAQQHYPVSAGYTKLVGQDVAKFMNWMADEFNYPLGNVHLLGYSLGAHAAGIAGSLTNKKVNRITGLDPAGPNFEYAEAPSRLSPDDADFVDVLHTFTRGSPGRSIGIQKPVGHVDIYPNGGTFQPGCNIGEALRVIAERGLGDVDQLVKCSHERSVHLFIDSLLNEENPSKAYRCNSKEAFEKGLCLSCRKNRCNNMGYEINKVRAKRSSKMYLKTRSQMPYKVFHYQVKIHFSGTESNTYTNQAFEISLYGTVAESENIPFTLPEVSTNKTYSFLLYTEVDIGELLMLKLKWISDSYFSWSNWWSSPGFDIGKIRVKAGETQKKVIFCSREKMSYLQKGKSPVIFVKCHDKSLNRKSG

Delta4c trunc14 = target: T2, Delta4c trunc14
T2 chain: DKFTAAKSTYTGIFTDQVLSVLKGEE

Delta4c trunc3 = target: T3, Delta4c trunc3
T3 chain: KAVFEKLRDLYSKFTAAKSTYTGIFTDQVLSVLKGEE

Delta4b T57F = target: T4, Delta4b T57F
T4 chain: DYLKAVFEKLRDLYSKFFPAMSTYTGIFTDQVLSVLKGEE

[2] = target: T5, C2thirdhelix Stearylpos17
T5 chain: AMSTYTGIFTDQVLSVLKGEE

C2thirdhelix = target: T6, C2thirdhelix
T6 chain: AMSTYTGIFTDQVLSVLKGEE

C2thirdhelix Stearylpos2 = target: T7, C2thirdhelix Stearylpos2
T7 chain: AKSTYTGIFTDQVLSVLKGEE

Delta4b = target: T8, Delta4b
T8 chain: T4 chain with F18T

Delta4c trunc4 = target: T9, Delta4c trunc4
T9 chain: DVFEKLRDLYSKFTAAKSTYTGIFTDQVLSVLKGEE

Delta4c trunc7 = target: T10, Delta4c trunc7
T10 chain: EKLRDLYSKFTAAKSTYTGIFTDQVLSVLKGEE

Delta4 = target: T11, Delta4
T11 chain: T4 chain with F18T, P19A, M21L

Delta4b-2 = target: T12, Delta4b-2
T12 chain: T4 chain with L10K, F18T

Delta4b-3 = target: T13, Delta4b-3
T13 chain: T4 chain with F17K, F18T

Delta6 = target: T14, Delta6
T14 chain: T4 chain with A5E, S15E, F18T, P19A, M21L

[3] = target: variants of Delta5 with the indicated amino acid substitutions
Delta4b-1 = target: T15, Delta4b-1
T15 chain: T4 chain with F7K, F18T

Delta4c = target: T16, Delta4c
T16 chain: T4 chain with F18T, P19A, M21K

Delta5 = target: T17, Delta5
T17 chain: T4 chain with A5E, F18T, P19A, M21L

Delta13-31-PV = target: T18, Delta13-31-PV
T18 chain: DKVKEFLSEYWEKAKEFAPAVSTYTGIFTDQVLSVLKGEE

Delta4c trunc10 = target: T19, Delta4c trunc10
T19 chain: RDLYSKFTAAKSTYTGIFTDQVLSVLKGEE

C2thirdhelix Stearylpos1 = target: T20, C2thirdhelix Stearylpos1
T20 chain: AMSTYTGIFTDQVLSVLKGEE

Delta4c trunc11 = target: T21, Delta4c trunc11
T21 chain: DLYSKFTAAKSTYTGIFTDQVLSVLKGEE

**Q.** Which results are given for recombinant ApoC-III?
**A.** free fatty acid (NEFA) production, LPL assay with high TG human plasma (1:50) [1]: 1.7 µM; free fatty acid (NEFA) production, LPL assay with human plasma [1]: 0.8 µM

B1: apoC-II-a peptide (peptide)
peptide: DWLKAFYDKVAEKLKEAFPAMSTYTGIFTDQVLSVLKGEE
**Q.** For B1, which “molar ratio of apoC-II-a to apoC-III that overcomes the in vitro inhibition of LPL” value [1] is on record?
**A.** 0.1 molar ratio apoC-II-a : apoC-III

B2: bovine LPL (lipoprotein lipase) (protein)
chain: T1 sequence (looked up)
**Q.** Which results are given for B2?
**A.** TG hydrolysis, LPL assay with apoC-II deficient patient sera (Delta4c trunc14): Delta4c and its truncation variants promoted TG hydrolysis; TG hydrolysis, LPL assay with apoC-II deficient patient sera (Delta4c trunc3): Delta4c and its truncation variants promoted TG hydrolysis; TG hydrolysis, in vitro LPL assay, 100 pM to 10 µM peptide (Delta4b T57F): promoted TG hydrolysis in a dose-dependent manner; TG hydrolysis, in vitro LPL assay with apoC-II deficient patient sera [2]: lipidation enhanced the ability of C2thirdhelix to promote TG hydrolysis; TG hydrolysis, in vitro LPL assay with apoC-II deficient patient sera (C2thirdhelix): lipidation enhanced the ability of C2thirdhelix to promote TG hydrolysis; TG hydrolysis, in vitro LPL assay with apoC-II deficient patient sera (C2thirdhelix Stearylpos2): lipidation enhanced the ability of C2thirdhelix to promote TG hydrolysis; TG hydrolysis, in vitro LPL assay with apoC-II deficient patient sera (Delta4b): incorporation of proline at position 58 and the stearic acid modification at the lysine residue at position 56 enhanced the TG clearance ability of the exemplary apoC-III mimetic peptide Delta4; TG hydrolysis, in vitro LPL assay, 100 pM to 10 µM peptide (Delta4b): promoted TG hydrolysis in a dose-dependent manner; TG hydrolysis, LPL assay with apoC-II deficient patient sera (Delta4c trunc4): Delta4c and its truncation variants promoted TG hydrolysis; production of free fatty acid (NEFA), LPL assay with Intralipid as substrate (recombinant ApoC-III): apoC-III inhibited the production of free fatty acid (NEFA); TG hydrolysis, LPL assay with apoC-II deficient patient sera (Delta4c trunc7): Delta4c and its truncation variants promoted TG hydrolysis; TG hydrolysis, LPL assay using Intralipid as substrate (Delta4): worked more efficiently than the native apoC-II protein at concentrations of between about 1 nM to about 10 µM; TG hydrolysis, in vitro LPL assay, 100 pM to 10 µM peptide (Delta4): promoted TG hydrolysis in a dose-dependent manner; TG hydrolysis, in vitro LPL assay, 100 pM to 10 µM peptide (Delta4b-2): promoted TG hydrolysis in a dose-dependent manner; TG hydrolysis, in vitro LPL assay with apoC-II deficient patient sera (Delta4b-3): incorporation of proline at position 58 and the stearic acid modification at the lysine residue at position 56 enhanced the TG clearance ability of the exemplary apoC-III mimetic peptide Delta4; TG hydrolysis, in vitro LPL assay, 100 pM to 10 µM peptide (Delta4b-3): promoted TG hydrolysis in a dose-dependent manner; TG hydrolysis, LPL assay with apoC-II deficient patient sera (Delta6): all variants of Delta5 with the indicated amino acid substitutions and Delta6 exhibited the ability to promote TG hydrolysis in a dose dependent matter; TG hydrolysis, LPL assay with apoC-II deficient patient sera [3]: all variants of Delta5 with the indicated amino acid substitutions and Delta6 exhibited the ability to promote TG hydrolysis in a dose dependent matter; TG hydrolysis, in vitro LPL assay, 100 pM to 10 µM peptide (Delta4b-1): promoted TG hydrolysis in a dose-dependent manner; TG hydrolysis, LPL assay with apoC-II deficient patient sera (Delta4c): Delta4c and its truncation variants promoted TG hydrolysis; TG hydrolysis, LPL assay using Intralipid as substrate (Delta5): worked more efficiently than the native apoC-II protein at concentrations of between about 1 nM to about 10 µM; TG hydrolysis, in vitro LPL assay with apoC-II deficient patient sera (Delta13-31-PV): promoted TG hydrolysis in vitro in a dose-dependent manner; TG hydrolysis, LPL assay with apoC-II deficient patient sera (Delta4c trunc10): Delta4c and its truncation variants promoted TG hydrolysis; TG hydrolysis, in vitro LPL assay with apoC-II deficient patient sera (C2thirdhelix Stearylpos1): lipidation enhanced the ability of C2thirdhelix to promote TG hydrolysis; TG hydrolysis, LPL assay with apoC-II deficient patient sera (Delta4c trunc11): Delta4c and its truncation variants promoted TG hydrolysis
